According to patent publication US20130217572A1, “SPECIFIC DELIVERY OF AGROCHEMICALS” (VRIJE UNIVERSITEIT BRUSSEL, priority 2010, published 2013):
Numbering of substitutions follows the chain as printed.

B1: VHH 5C4 (VHH)
VHH: QVQLQESGGGLVQPGGSLRLSCAASGFSLRYFGIGWFRQVAGKEREPVSCSNVRDGNTYYADSVKGRFTISRDNVRNTLYLQMNSLKPEDTAVYSCATTDCEATTWGTYRGYFGQGTQVTVSS
notes: Hexahistidine-tagged
B2: VHH 5G5 (VHH)
VHH: B1 VHH with V40A, P47G, V48I, T78M, S85N, E89D
notes: Hexahistidine-tagged
B3: VHH 5D4 (VHH)
VHH: QVQLQESGGGLVQPGGSLRLSCAASGFDMRRFGIGWFRQVAGKEREGVSCSNVHDGTTYYTNDVKGRFTIVRDNTKNMLYLQMNKLRPEDTAVYSCATTDCEATAWGTYRGYFGQGTQVTVSS
notes: Hexahistidine-tagged
B4: VHH 7D2 (VHH)
VHH: QVQLQESGGGLVQPGRSLKVACAAAGFSLRYYGIGWFRQAPGKEREAVSCTSANDGSTYYRDSVRGRFTISRDDGKNTVYLQMNRLKPEDTAVYYCATTDCDATSWGTWINYYGQGTQVTVSS
notes: Hexahistidine-tagged
B5: Bivalent VHH 3E6 (VHH)
chain: QVQLQESGGGLVQPGGTLSLSCAASGFNVRWYGMGWFRQAPGKEREGVACISALQETTAYADSVKGRFTLSRDNPKNTLSLQMNNLQPEDTGVYYCATTDCDDSSRMTYTSYLGQGTQVTVSSGGGGSGGGSQVQLQESGGGLVQPGGTLSLSCAASGFNVRWYGMGWFRQAPGKEREGVACISALQETTAYADSVKGRFTLSRDNPKNTLSLQMNNLQPEDTGVYYCATTDCDDSSRMTYTSYLGQGTQVTVSSAAAEQKLISEEDLNGAAHHHHHH
notes: Built from the general description of the bivalent constructs (two VHH in tandem); Tested covalently coupled to Uvitex microcapsules

How the values were obtained:
potato lectin (Sigma) [1] = biological target: T1, potato lectin (Sigma) (potato, UniProt Q9S8M0 23-323); assay: VHH-coupled Uvitex microcapsules retained on potato lectin-coated wells; 4% surface coverage
T1 construct: Bought glycoprotein, coated on ELISA plates
T1 sequence (looked up): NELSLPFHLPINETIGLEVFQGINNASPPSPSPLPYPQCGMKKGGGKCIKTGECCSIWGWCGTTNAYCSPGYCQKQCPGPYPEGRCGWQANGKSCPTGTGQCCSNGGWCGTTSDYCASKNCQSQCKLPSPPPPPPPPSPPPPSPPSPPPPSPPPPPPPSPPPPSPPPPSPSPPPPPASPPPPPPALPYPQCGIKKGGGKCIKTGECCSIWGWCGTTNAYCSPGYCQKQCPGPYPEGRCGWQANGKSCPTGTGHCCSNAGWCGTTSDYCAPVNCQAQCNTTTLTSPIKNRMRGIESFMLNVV

potato lectin (Sigma) [2] = biological target: T1, potato lectin (Sigma); assay: VHH-coupled Uvitex microcapsules retained on potato lectin-coated wells; 20% surface coverage
potato lectin (Sigma) [3] = biological target: T1, potato lectin (Sigma); assay: VHH-coupled Uvitex microcapsules retained on potato lectin-coated wells; 100% surface coverage
potato lectin (Sigma) [4] = biological target: T1, potato lectin (Sigma); assay: VHH-coupled Uvitex OB microcapsules retained on potato lectin-coated wells; 4% surface coverage
potato lectin (Sigma) [5] = biological target: T1, potato lectin (Sigma); assay: VHH-coupled Uvitex OB microcapsules retained on potato lectin-coated wells; 20% surface coverage
potato lectin (Sigma) [6] = biological target: T1, potato lectin (Sigma); assay: VHH-coupled Uvitex OB microcapsules retained on potato lectin-coated wells; 100% surface coverage
potato lectin (Sigma) [7] = biological target: T1, potato lectin (Sigma); assay: VHH-coupled lambda-cyhalothrin microcapsules retained on potato lectin-coated wells; 4% surface coverage
potato lectin (Sigma) [8] = biological target: T1, potato lectin (Sigma); assay: VHH-coupled lambda-cyhalothrin microcapsules retained on potato lectin-coated wells; 20% surface coverage
potato lectin (Sigma) [9] = biological target: T1, potato lectin (Sigma); assay: VHH-coupled lambda-cyhalothrin microcapsules retained on potato lectin-coated wells; 100% surface coverage
gum arabic = assay: VHH binding to gum arabic in ELISA; set-up: species or system acacia tree
Experimental: Titration of VHH antibody fragments was performed on ELISA plates (Maxisorp, Nunc) coated with 100 μl per well 100 μg/ml gum arabic in 50 mM carbonate pH9.6. Plates were coated at 4° C. overnight and coating was continued at room temperature for 1 hour on the next day. Plates were washed three times with PBS/0.05%-TWEEN®-20 and blocked with 5% skimmed milk in PBS for 1 hour. Four-fold serial dilutions of purified VHH antibody fragments were prepared in 1% MPBS/0.05%-TWEEN®-20 in polypropylene 96-well plates. Antibody concentrations ranged from 3 μg/ml to 12 ng/ml. Antibody dilutions were transferred to the gum arabic-coated plates and VHH antibody fragments were allowed to bind for 1 hour at room temperature. Bound VHH were detected with sequential incubations with monoclonal mouse anti-histidine antibodies (Abd Serotec) and rabbit anti-mouse IgG whole molecule antibodies conjugated with alkaline phosphatase (RaM/AP) (Sigma) in 1% MPBS/0.05%-TWEEN®-20. Unbound antibodies were removed by washing three times with PBS/0.05%-TWEEN®-20 after each antibody incubation. The plates were washed an additional two times with PBS and 100 μl pNPP disodium hexahydrate substrate (Sigma) was added to each well. The absorbance at 405 nm was measured and plotted as function of antibody concentration (see Table 1).

potato lectin = biological target: T2, potato lectin (Solanum tuberosum, UniProt Q9S8M0); assay: VHH binding to potato lectin in ELISA; details: blank wells; VHH 3 μg/ml
T2 sequence (Q9S8M0 23-323): T1 sequence (looked up)
Experimental: (§1) ELISA plates (Maxisorp, Nunc) coated with 100 μl per well 100 μg/ml potato lectin (Sigma) in PBS were coated at 4° C. overnight and coating was continued at room temperature for 1 hour on the next day. Plates were washed three times with PBS/0.05%-TWEEN®-20 and blocked with 5% skimmed milk in PBS for 1 hour. VHH (3 μg/ml) were transferred to the potato lectin-coated plates and VHH antibody fragments were allowed to bind for 1 hour at room temperature. Bound VHH were detected with sequential incubations with monoclonal mouse anti-histidine antibodies (Abd Serotec) and rabbit anti-mouse IgG whole molecule antibodies conjugated with alkaline phosphatase (RaM/AP) (Sigma) in 1% MPBS/0.05%-TWEEN®-20. Unbound antibodies were removed by washing three times with PBS/0.05%-TWEEN®-20 after each antibody incubation. The plates were washed an additional two times with PBS and 100 μl pNPP disodium hexahydrate substrate (Sigma) was added to each well and the absorbance at 405 nm was measured (see Table 2).

potato lectin (Sigma) [10] = biological target: T1, potato lectin (Sigma); assay: ELISA, potato lectin coated at 100 ug/ml, VHH at 3 ug/ml, anti-histidine detection
Experimental: as §1

potato leaf surface = assay: VHH binding to leaf discs (microscopy); set-up: species or system potato (variety Désirée); details: 5 μg/ml in PBS, anti-histidine Alexa-488 detection
Experimental: VHH binding to non-fixed leaf discs of potato (variety Désirée), black nightshade, grass, wheat or azalea was investigated. For comparison, binding of CBM3a to non-fixed leaf discs of potato (variety Désirée) was analyzed in parallel. Leaf discs were prepared by punching a fresh potato leaf with a 5 mm belt hole puncher tool. Leaf discs were put immediately in wells of a 96-well plate containing 200 μl per well 5% MPBS or PBS, and incubated for 30 minutes. Leaf discs were transferred to solutions containing 5 μg/ml VHH antibody fragment, respectively 5 μg/ml CBM3a in 2% MPBS or PBS and incubated for 60-90 minutes. Unbound VHH or CBM3a proteins were removed by washing three times with 2% MPBS or PBS. Bound VHH or CBM3a proteins were detected with incubation with monoclonal mouse anti-histidine antibodies directly conjugated with Alexa-488 fluorescent dye (Abd Serotec) in 1% MPBS for 1 hour. Unbound antibodies were removed by washing three times with PBS. Leaf discs were put on glass slides, covered with cover slips, and analyzed by microscopy or on a macrozoom microscope system (Nikon) or a SP5 confocal microscope system (Leica).

unrelated antigens [11] = assay: VHH-coupled Uvitex microcapsules retained on wells coated with unrelated antigen; 4% surface coverage
unrelated antigens [12] = assay: VHH-coupled Uvitex microcapsules retained on wells coated with unrelated antigen; 20% surface coverage
unrelated antigens [13] = assay: VHH-coupled Uvitex microcapsules retained on wells coated with unrelated antigen; 100% surface coverage
potato lectin (Sigma) [14] = biological target: T1, potato lectin (Sigma); assay: VHH-coupled Uvitex microcapsules on potato lectin-coated wells; 25-fold less microcapsules applied
Experimental: An ELISA-like assay was performed using high bind half area microplates (Greiner Bio-One) coated with 5 μg/well potato lectin. Control wells included blank wells or wells coated with unrelated antigens. Plates were washed three times with PBS with 0.05%-TWEEN®-20 and blocked with 5% skimmed milk in PBS for 1 to 2 hours. VHH-coupled Uvitex-containing microcapsules were diluted to appropriate densities in 1% skimmed milk in PBS with 0.05%-TWEEN®-20. Five-fold serial dilution series were prepared and allowed to bind to the surface to compare binding of microcapsules coupled with monovalent or bivalent VHH. Microcapsules were added to the antigen-coated or control wells and allowed to bind for 1 hour. Unbound microcapsules were removed by washing five times with PBS with 0.05%-TWEEN®-20. The bottoms of ELISA plate wells were analyzed for bound microcapsules on a macrozoom microscope system (Nikon). Microcapsules were counted using Volocity image analysis software (Perkin Elmer). A DAPI filter was used to visualize Uvitex microcapsules.
The surface area of microcapsules with coupled bivalent VHH was 15-fold above the surface area of blank microcapsules applied at this microcapsule density while the surface area of microcapsules with monovalent VHH was only six-fold above the surface area of blank microcapsules applied at this microcapsule density. […]

[15] = Table 2, gum arabic coat, VHH 3 μg/ml
[16] = [VHH] 0.0117188 μg/ml (0.78125 nM), gum arabic 100 μg/ml
[17] = [VHH] 0.04688 μg/ml (3.125 nM), gum arabic 100 μg/ml
[18] = [VHH] 0.1875 μg/ml (12.5 nM), gum arabic 100 μg/ml
[19] = [VHH] 0.75 μg/ml (50 nM), gum arabic 100 μg/ml
[20] = [VHH] 3 μg/ml (200 nM), gum arabic 100 μg/ml
[21] = [VHH] 3 μg/ml (200 nM), no gum arabic coat (−)

Molecule	absorbance at 405 nm (gum arabic; [15])	absorbance at 405 nm (gum arabic; [16])	absorbance at 405 nm (gum arabic; [17])	absorbance at 405 nm (gum arabic; [18])	absorbance at 405 nm (gum arabic; [19])	absorbance at 405 nm (gum arabic; [20])	absorbance at 405 nm (gum arabic; [21])	absorbance at 405 nm (potato lectin)	absorbance at 405 nm (potato lectin (Sigma) [10])	other results
unrelated VHH	–	–	–	–	–	–	–	–	–	surface area of bound microcapsules (potato lectin (Sigma) [1]): 19.2; surface area of bound microcapsules (potato lectin (Sigma) [2]): 43.5; surface area of bound microcapsules (potato lectin (Sigma) [3]): 142; area of bound microcapsules (potato lectin (Sigma) [4]): 7.53; area of bound microcapsules (potato lectin (Sigma) [5]): 35.4; area of bound microcapsules (potato lectin (Sigma) [6]): 16.7; counts of bound microcapsules (microcapsules) (potato lectin (Sigma) [7]): 348; counts of bound microcapsules (microcapsules) (potato lectin (Sigma) [8]): 709; counts of bound microcapsules (microcapsules) (potato lectin (Sigma) [9]): 828
B1	0.873	0.166	0.386	1.036	1.710	2.010	0.082	0.071	4	–
B2	0.751	0.125	0.317	0.906	1.611	1.966	0.077	0.073	4	–
B3	0.530	0.087	0.134	0.378	0.840	1.280	0.075	0.072	4	binding to native potato leaf surface (potato leaf surface): binding leaf surface, stomata, glandular trichomes, and leaf hairs; binding to native potato leaf surface (potato leaf surface; listed as 5D4): clearly binding to trichomes, stomata and cuticle
B4	0.274	0.083	0.136	0.347	0.906	1.427	0.074	0.072	4	–
B5	–	–	–	–	–	–	–	–	–	surface area of bound microcapsules (unrelated antigens [11]): 15; surface area of bound microcapsules (unrelated antigens [12]): 22.1; surface area of bound microcapsules (unrelated antigens [13]): 45.7; fold of surface area above blank microcapsules (potato lectin (Sigma) [14]): 15 fold
